According to US20110177071A1 (PERSEID THERAPEUTICS, published 2011):
Residue numbers refer to the chain shown, from its start.

T1: full-length human CD86 on HEK293 cells (human, UniProt P42081 24-329)
T1 sequence: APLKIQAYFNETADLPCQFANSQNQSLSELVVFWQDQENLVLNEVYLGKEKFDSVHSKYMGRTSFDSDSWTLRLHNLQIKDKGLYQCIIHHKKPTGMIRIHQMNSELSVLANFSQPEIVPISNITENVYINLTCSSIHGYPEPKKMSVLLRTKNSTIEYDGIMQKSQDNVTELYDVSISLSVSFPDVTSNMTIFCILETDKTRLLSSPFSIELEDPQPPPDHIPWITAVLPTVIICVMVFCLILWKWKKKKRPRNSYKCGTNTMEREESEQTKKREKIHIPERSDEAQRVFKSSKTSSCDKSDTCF

T2: human CD86-murine Ig fusion protein (human)
T2 construct: Bought (Ancell #509-820); also called hCD86-mIg
T2 chain: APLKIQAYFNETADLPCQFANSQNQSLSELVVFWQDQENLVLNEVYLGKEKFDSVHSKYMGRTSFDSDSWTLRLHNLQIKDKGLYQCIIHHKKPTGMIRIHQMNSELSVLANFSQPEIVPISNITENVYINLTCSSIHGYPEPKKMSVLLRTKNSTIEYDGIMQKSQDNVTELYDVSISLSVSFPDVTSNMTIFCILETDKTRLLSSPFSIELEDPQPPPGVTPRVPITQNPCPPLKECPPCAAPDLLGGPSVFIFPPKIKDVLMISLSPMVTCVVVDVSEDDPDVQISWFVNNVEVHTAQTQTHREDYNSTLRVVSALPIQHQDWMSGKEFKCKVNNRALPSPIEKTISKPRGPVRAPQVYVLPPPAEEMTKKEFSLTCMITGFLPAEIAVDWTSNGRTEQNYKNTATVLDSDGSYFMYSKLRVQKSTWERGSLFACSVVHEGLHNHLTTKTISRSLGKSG

T3: human CD80-murine Ig fusion protein (human)
T3 construct: Bought (Ancell #510-820); also called hCD80-mIg; human CD80-murine IgG
T3 chain: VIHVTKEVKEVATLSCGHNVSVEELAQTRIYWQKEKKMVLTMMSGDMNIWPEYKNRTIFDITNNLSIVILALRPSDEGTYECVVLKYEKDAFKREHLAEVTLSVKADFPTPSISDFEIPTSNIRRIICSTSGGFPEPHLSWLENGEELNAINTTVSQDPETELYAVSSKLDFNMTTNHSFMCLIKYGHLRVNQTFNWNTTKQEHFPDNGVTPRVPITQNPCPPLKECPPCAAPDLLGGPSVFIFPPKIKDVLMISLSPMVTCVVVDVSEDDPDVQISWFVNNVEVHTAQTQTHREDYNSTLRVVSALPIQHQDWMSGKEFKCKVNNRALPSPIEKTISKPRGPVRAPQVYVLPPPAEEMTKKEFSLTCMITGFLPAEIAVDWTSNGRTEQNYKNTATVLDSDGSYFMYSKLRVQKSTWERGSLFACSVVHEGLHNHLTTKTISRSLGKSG

T4: monomeric hCD86 ECD (papain-digested hCD86-mIg) (human, UniProt P42081 24-243)
T4 construct: also called monomeric hCD86-mIg ligand; monomeric CD86 ECD
T4 chain: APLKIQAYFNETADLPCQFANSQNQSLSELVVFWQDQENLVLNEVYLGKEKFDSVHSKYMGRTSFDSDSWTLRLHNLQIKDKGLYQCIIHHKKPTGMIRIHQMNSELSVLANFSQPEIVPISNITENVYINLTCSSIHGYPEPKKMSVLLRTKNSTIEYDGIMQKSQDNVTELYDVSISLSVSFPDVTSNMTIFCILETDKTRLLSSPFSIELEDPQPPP

B1: D3-14-IgG2 (Fc fusion)
chain: MHVAQPAVVLASSRGIASFVCEYESPGKANEIRVTVLRQADSQVTEVCAMTYMKGDELTFLDDPSCTGTFSGNQVNLTIQGLRAADTGLYICKVELMYPPPYYLGIGNGTQIYVIDPEPCPDSDERKCCVECPPCPAPPVAGPSVFLFPPKPKDTLMISRTPEVTCVVVDVSHEDPEVQFNWYVDGVEVHNAKTKPREEQFNSTFRVVSVLTVVHQDWLNGKEYKCKVSNKGLPAPIEKTISKTKGQPREPQVYTLPPSREEMTKNQVSLTCLVKGFYPSDIAVEWESNGQPENNYKTTPPMLDSDGSFFLYSKLTVDKSRWQQGNVFSCSVMHEALHNHYTQKSLSLSPG
B2: D3-17-IgG2 (Fc fusion)
chain: B1 chain with A85M
B3: D3-72-IgG2 (Fc fusion)
chain: B1 chain with D56N, A85M, L104E
B4: D3-29-IgG2 (Fc fusion)
chain: B1 chain with E24A, A85M
B5: D3-71-IgG2 (Fc fusion)
chain: B1 chain with E24A, A85M, L104E
B6: D3-4-IgG2 (Fc fusion)
chain: B1 chain with I106F
notes: also called D3-04-IgG2
B7: D3-12-IgG2 (Fc fusion)
chain: B1 chain with D41G
B8: D3-IgG2 (Fc fusion)
chain: B1 chain with D41G, I106F
notes: also called clone D3
B9: D3-75-IgG2 (Fc fusion)
chain: B1 chain with I32V, G55E, D56N, A85M
B10: D3-31-IgG2 (Fc fusion)
chain: B1 chain with G55E
B11: D3-53-IgG2 (Fc fusion)
chain: B1 chain with D41G, L104E
B12: D3-20-IgG2 (Fc fusion)
chain: B1 chain with D56N, A85M
B13: D3-11-IgG2 (Fc fusion)
chain: B1 chain with D41G, A85M, I106F
B14: D3-70-IgG2 (Fc fusion)
chain: B1 chain with I32V, D56N, A85M, L104E
B15: D3-73-IgG2 (Fc fusion)
chain: B1 chain with I32V, D56N, S65I, A85M, L104E
B16: D3-27-IgG2 (Fc fusion)
chain: B1 chain with I32V, D56N, A85M
B17: D1-IgG2 (Fc fusion)
chain: B1 chain with G27H, N30T, D41N, S65F

target: T1, full-length human CD86 on HEK293 cells; test: cell-based or functional assay

Row | Binder | Mean IC50 (nM), CD4+ T cell proliferation
1 | B1 | 0.04 nM
2 | B2 | 0.03 nM
3 | B3 | 0.03 nM
4 | B4 | 0.04 nM
5 | B5 | 0.04 nM
6 | B6 | 0.03 nM
7 | B7 | 0.04 nM
8 | B8 | 0.04 nM
9 | B9 | 0.03 nM
10 | B10 | 0.03 nM
11 | B11 | 0.02 nM
12 | B12 | 0.04 nM
13 | B13 | 0.03 nM
14 | B14 | 0.05 nM
15 | B15 | 0.06 nM
16 | B16 | 0.04 nM

Target: T2, human CD86-murine Ig fusion protein
Test: SPR Biacore, hCD86-mIg captured

Row | Binder | Binding Avidity (Relative to Orencia) | Kd
17 | B1 | > 40 fold | < 0.131 nM
18 | B2 | > 40 fold | < 0.131 nM
19 | B3 | > 40 fold | < 0.131 nM
20 | B4 | > 40 fold | < 0.131 nM
21 | B5 | > 40 fold | < 0.131 nM
22 | B6 | > 40 fold | < 0.131 nM
23 | B7 | > 40 fold | < 0.131 nM
24 | B8 | > 40 fold | < 0.131 nM
25 | B9 | > 40 fold | < 0.131 nM
26 | B10 | > 40 fold | < 0.131 nM
27 | B11 | > 40 fold | < 0.131 nM
28 | B12 |  | 0.131 to 0.262 nM
29 | B13 | > 40 fold | < 0.131 nM
30 | B14 | > 40 fold | < 0.131 nM
31 | B15 | > 40 fold | < 0.131 nM
32 | B16 |  | 0.131 to 0.262 nM

Target: T3, human CD80-murine Ig fusion protein
Test: SPR Biacore, hCD80-mIg captured

Row | Binder | Kd | Binding Avidity (Relative to Orencia)
33 | B1 | 0.439 to 1.75 nM | 
34 | B2 | 0.439 to 1.75 nM | 
35 | B3 | < 0.439 nM | > 2 fold
36 | B4 | 0.439 to 1.75 nM | 
37 | B5 | < 0.439 nM | > 2 fold
38 | B6 | 0.439 to 1.75 nM | 
39 | B7 | < 0.439 nM | > 2 fold
40 | B8 | 0.439 to 1.75 nM | 
41 | B9 | < 0.439 nM | > 2 fold
42 | B10 | < 0.439 nM | > 2 fold
43 | B17 | < 0.439 nM | > 2 fold
44 | B11 | < 0.439 nM | > 2 fold
45 | B12 | 0.439 to 1.75 nM | 
46 | B13 | 0.439 to 1.75 nM | 
47 | B14 | < 0.439 nM | > 2 fold
48 | B15 | < 0.439 nM | > 2 fold
49 | B16 | 0.439 to 1.75 nM | 

Target: T4, monomeric hCD86 ECD (papain-digested …)
Test: SPR Biacore, fusion protein captured, monomeric hCD86 ECD in flow
Procedure: Regeneration between cycles was performed by 3 min incubation with 10 mM glycine buffer (pH 1.7) at 30 μl/min.
For kinetic analysis, data from monomeric binding assays were selected as described above except that association data selection began and ended 5 s from the injection start and stop times, and dissociation data selection started 5 s after the injection stop time, and typically included 1-60 s of the dissociation period. Such data were also analyzed for steady state equilibrium affinities using the BIAevaluation software. Steady state binding levels for each concentration (Responseeq (“Req”) values) were averaged over 5-20 s range near the end of the sample injection using the BIAevaluation “General fit: average” function.

Row | Binder | Binding Affinity (Relative to LEA29Y-Ig) | Kd
50 | B1 | > 5 fold | < 336 nM
51 | B2 | > 5 fold | < 336 nM
52 | B4 | > 5 fold | < 336 nM
53 | B6 | > 5 fold | < 336 nM
54 | B7 | > 5 fold | < 336 nM
55 | B8 | > 5 fold | < 336 nM
56 | B10 | > 5 fold | < 336 nM
57 | B11 | > 5 fold | < 336 nM
58 | B12 |  | 336 to 840 nM
59 | B13 | > 5 fold | < 336 nM
60 | B16 |  | 336 to 840 nM

Target: T2, human CD86-murine Ig fusion protein
Test: SPR Biacore, hCD86-mIg captured; upper end of the KD bin (2x Orencia)
Procedure: (§1) All Biacore™ analyses were performed on a Biacore™ 2000 system (GE Healthcare) at room temperature (RT, 25° C.). HBS-EP buffer (10 mM HEPES (pH 7.4), 150 mM NaCl, 3 mM EDTA, 0.005% surfactant P20) was used as the flow buffer for all experiments.
(§2) Rabbit anti-mouse IgG antibody (GE Healthcare, #BR-1005-14) was immobilized on CM5 sensor chips (GE Healthcare, #BR-1000-14) according to the manufacturer's protocol. Antibody was diluted to 30 μg/ml in immobilization buffer (10 mM sodium acetate, pH 5.0 (BR-1003-51)). At a flow rate of 5 μl/minute, sensor chip CM5 was activated with a 35 μl injection of a mixture of 1-Ethyl-3-[3-dimethylaminopropyl]carbodiimide hydrochloride (EDC) and N-hydroxysuccinimide (NHS) (made by mixing equal volumes of 11.5 mg/ml EDC and 75 mg/ml NHS) (GE Healthcare, #BR-1000-50), followed by a 35 μl injection of undiluted antibody. Un-reacted sites were quenched with 35 μl of 1M ethanolamine-HCL, pH 8.5 (GE Healthcare, #BR-1000-50). […] CTLA-4 ligands human CD80-murine Ig (hCD80-mIg) (Ancell, #510-820) or human CD86-murine Ig (hCD86-mIg) (Ancell, #509-820) were bound to antibody-coated sensor chips by injection of 10 μl or 16 μl, respectively, ligand solution (2 μg/ml protein in HBS-EP buffer [10 mM HEPES pH 7.4, 150 mM NaCl, 3 mM EDTA, 0.005% (v/v) surfactant P-20, GE Healthcare, #BR-1001-88]) at a flow rate of 10 μl/min.

Row | Binder | Kd
61 | B17 | ≤ 2.65 nM

Target: T2, human CD86-murine Ig fusion protein
Test: SPR Biacore, hCD86-mIg captured; lower end of the KD bin (10x Orencia)
Procedure: as §1, §2

Row | Binder | Kd
62 | B17 | ≥ 0.523 nM
